In PMC4230329 (Biochemistry, 2014):

B1: Grafted FtsH-S6 ATPase, His6x-tagged (wild-type) (other)
chain: MLTEDQIKTTFADVAGCDEAKEEVAELVEYLREPSRFQKLGGKIPKGVLMVGPPGTGKTLLAKAIAGEAKVPFFTISGSDFVEMFVGVGASRVRDMFEQAKKAAPCIIFIDEIDAVGRQRGAGLGGGHDEREQTLNQMLVEMDGFEGNEGIIVIAATNRPDVLDPALLRPGRFDRQVVVGLPDRRQKRLIFSTITSKMNLSEEVDLEDYVARPDKISGADINSICQESGMLAVRENRYIVLAKDFEKAYKTVIKKDEQEHEFYK
B2: gankyrin-His6x (wild-type gankyrin) (natural protein)
chain: MEGCVSNLMVCNLAYSGKLEELKESILADKSLATRTDQDSRTALHWACSAGHTEIVEFLLQLGVPVNDKDDAGWSPLHIAASAGRDEIVKALLGKGAQVNAVNQNGCTPLHYAASKNRHEIAVMLLEGGANPDAKDHYEATAMHRAAAKGNLKMIHILLYYKASTNIQDTEGNTPLHLACDEERVEEAKLLVSQGASIYIENKEEKTPLQVAKGGLGLILKR
B3: gankyrin-His6x R41A/K116A (natural protein)
chain: MEGCVSNLMVCNLAYSGKLEELKESILADKSLATRTDQDSATALHWACSAGHTEIVEFLLQLGVPVNDKDDAGWSPLHIAASAGRDEIVKALLGKGAQVNAVNQNGCTPLHYAASANRHEIAVMLLEGGANPDAKDHYEATAMHRAAAKGNLKMIHILLYYKASTNIQDTEGNTPLHLACDEERVEEAKLLVSQGASIYIENKEEKTPLQVAKGGLGLILKR
B4: gankyrin-His6x D39A/D71A (natural protein)
chain: MEGCVSNLMVCNLAYSGKLEELKESILADKSLATRTDQASRTALHWACSAGHTEIVEFLLQLGVPVNDKDAAGWSPLHIAASAGRDEIVKALLGKGAQVNAVNQNGCTPLHYAASKNRHEIAVMLLEGGANPDAKDHYEATAMHRAAAKGNLKMIHILLYYKASTNIQDTEGNTPLHLACDEERVEEAKLLVSQGASIYIENKEEKTPLQVAKGGLGLILKR
B5: gankyrin K116A (natural protein)
chain: MEGCVSNLMVCNLAYSGKLEELKESILADKSLATRTDQDSRTALHWACSAGHTEIVEFLLQLGVPVNDKDDAGWSPLHIAASAGRDEIVKALLGKGAQVNAVNQNGCTPLHYAASANRHEIAVMLLEGGANPDAKDHYEATAMHRAAAKGNLKMIHILLYYKASTNIQDTEGNTPLHLACDEERVEEAKLLVSQGASIYIENKEEKTPLQVAKGGLGLILKR
B6: gankyrin E182A (natural protein)
chain: MEGCVSNLMVCNLAYSGKLEELKESILADKSLATRTDQDSRTALHWACSAGHTEIVEFLLQLGVPVNDKDDAGWSPLHIAASAGRDEIVKALLGKGAQVNAVNQNGCTPLHYAASKNRHEIAVMLLEGGANPDAKDHYEATAMHRAAAKGNLKMIHILLYYKASTNIQDTEGNTPLHLACDAERVEEAKLLVSQGASIYIENKEEKTPLQVAKGGLGLILKR
B7: gankyrin-His6x R41A (natural protein)
chain: MEGCVSNLMVCNLAYSGKLEELKESILADKSLATRTDQDSATALHWACSAGHTEIVEFLLQLGVPVNDKDDAGWSPLHIAASAGRDEIVKALLGKGAQVNAVNQNGCTPLHYAASKNRHEIAVMLLEGGANPDAKDHYEATAMHRAAAKGNLKMIHILLYYKASTNIQDTEGNTPLHLACDEERVEEAKLLVSQGASIYIENKEEKTPLQVAKGGLGLILKR

Columns and labels:
Assay in all cases: ITC
[1] = target: B2
gankyrin-His6x R41A = target: B7
gankyrin K116A = target: B5
gankyrin-His6x D39A/D71A = target: B4
[2] = target: B3
gankyrin E182A = target: B6
[3] = target: FtsH-S6 ATPase R338A/R339A/R342A (ITC protein) (Escherichia coli | , UniProt P43686 337-418, R338A | R339A | R342A)
[4] = target: FtsH-S6 ATPase E356A/E357A (ITC protein) (Escherichia coli | , E356A | E357A)
[5] = target: FtsH-S6 ATPase K397E (ITC protein) (Escherichia coli | , UniProt P43686 337-418, K397E)
[6] = target: B1
[7] = target: FtsH-S6 ATPase R342A (ITC protein) (Escherichia coli | , UniProt P43686 337-418, R342A)
[8] = target: FtsH-S6 ATPase R338A/R342A (ITC protein) (Escherichia coli | , UniProt P43686 337-418, R338A | R342A)

Binder: B1
Kd [1]: 67.3 nM
Kd (gankyrin-His6x R41A): 313 nM
Kd (gankyrin K116A): 71.3 nM
Kd (gankyrin-His6x D39A/D71A): 93 nM
Kd [2]: 3630 nM
Kd (gankyrin E182A): 141 nM

Binder: B2
Kd [3]: 7470 nM
dH [3]: -2.2 kcal/mol
Kd [4]: 71.8 nM
dH [4]: -27.3 kcal/mol
Kd [5]: 95.2 nM
dH [5]: -25.6 kcal/mol
dH [6]: -28.7 kcal/mol
Kd [7]: 217 nM
dH [7]: -22 kcal/mol
Kd [8]: 2550 nM
dH [8]: -6.1 kcal/mol

Binder: B3
dH [6]: -4.9 kcal/mol

Binder: B4
dH [6]: -25 kcal/mol

Binder: B5
dH [6]: -24 kcal/mol

Binder: B6
dH [6]: -28.2 kcal/mol

Binder: B7
dH [6]: -17.1 kcal/mol
